The Kd is the free concentration of one partner at which half of the binding sites on the other are occupied at equilibrium, for simple one-to-one binding. In general, koff refers to the rate constant with which the complex falls apart. By kon is commonly meant a measure of how fast the partners come together.

Changes are numbered by the printed parent chain. In names and notes the source's numbering stands. Some results are limits rather than exact numbers.

B1: H4sH14813N (antibody, human IgG4 S228P, kappa, V domains shown)
VH: QVQLQQWGAGLLKPSETLSLTCAVYGGSFSGYYWNWIRQPPGKGLEWVGEISHRGSTNYNPSLKSRVTISLDTSKNQFSLKLTSVTAADTAVYYCSRDEELEFRFFDYWGQGTLVTVSS
VL: EIVLTQSPATLSLSPGERATLSCRASQSVSSYLAWYQQKPGQAPRLLVYGASNRATGIPARFSGSGSGTDFTLTISSLEPEDFAFYYCQQRSNWPLTFGGGTKVEIKR
notes: H4sH = modified human IgG4 Fc
B2: H4sH15498P2 (antibody, V domains shown)
VH: EVQLVESGGGLVQPGGSLRLSCAASGFTFTSYAMTWVRQAPGKGLEWVSDISGSGGRTYYADSVKGRFTISRDNSKNMLYLQMNILRAEDTAVYHCAKGTGQQVDLYNYYYALDVWGQGTTVTVSS
VL: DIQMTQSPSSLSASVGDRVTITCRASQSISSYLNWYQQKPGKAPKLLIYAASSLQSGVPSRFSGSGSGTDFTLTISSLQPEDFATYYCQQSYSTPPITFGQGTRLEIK
notes: H4sH = human IgG4 Fc with 2 or more amino acid changes as disclosed in US20140243504
B3: H4H15498P2 (antibody, human IgG4, V domains shown)
VH: B2 VH
VL: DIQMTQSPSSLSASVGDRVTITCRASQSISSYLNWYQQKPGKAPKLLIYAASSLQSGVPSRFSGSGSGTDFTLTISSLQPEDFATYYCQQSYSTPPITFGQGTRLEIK
notes: H4H = human IgG4 Fc with S108P hinge mutation
B4: H4H17819P (antibody, human IgG4, V domains shown)
VH: EVQLVESGGGLVQPGGSLRLSCVASGFTFSLYAMTWVRQVPGKGLEWVSTISGSGGGTYYTDSVKGRFTISRDNSKNTLYLQMNSLRADDTAVFYCTKESTTGTYSYFYGMDVWGQGTTVTVSS
VL: DIQMTQSPSSLSASVGDRVTITCRASQTISSYLNWYQQKPGKAPKLLIYAASSLQSGVPSRFSGSGSGTDFTLTLSGLQPEDFATYYCQQSYSTPLTFGGGTKVEIK
notes: as for B3
B5: H4H15479P (antibody, human IgG4, V domains shown)
VH: QVQLQQWGAGLLNPSETLSLTCAVYGGAFSDYYWNWIRQPPGKGLEWIGEINHRGSTNYNPSLKSRVTISVDTSKNQFSLRMSSVTAADAAVYYCARGEDYDIWNGYYQEKWGQGTLVTVSS
VL: EIVLTQSPATLSLSPGERATLSCRASQSISTYLAWYQQKPGQAPRLLIYDASKRATGIPARFSGSGSGTDFTLTISSLEPEDFVVYYCHQRSNWPLTFGGGTKVEIK
B6: H4H14813N (antibody, human IgG4, V domains shown)
VH: B1 VH
VL: B5 VL with I29V, T31S, I48V, D50G, K53N, V84A, V85F, H89Q
notes: as for B3
B7: H4H15483P (antibody, human IgG4, V domains shown)
VH: QVQLQQWGAGLLPPSETLSLICAVYGGSFSGYYWSWIRQPPGKGLEWIGEINHRGSTNYNPSLKSRATISVDTSKNQFSLKLSSVTAADTAVYYCSRGEDYYDSSGYSYYFDYWGQGTLVTVSS
VL: B5 VL with I29V, T31S, K53N, V84A, H89Q
notes: as for B3
B8: H4sH15482P (antibody, human IgG4 S228P, kappa)
heavy: QVQLVESGGGVVQPGRSLRLSCVASGFTFSSYGMHWVRQAPGKGLEWVAIIWYDGSNKYYADSVKGRFTISRDNSKNTQYLQMNSLRAEDTAVYYCASVATSGDFDYYGMDVWGQGTTVTVSSASTKGPSVFPLAPCSRSTSESTAALGCLVKDYFPEPVTVSWNSGALTSGVHTFPAVLQSSGLYSLSSVVTVPSSSLGTKTYTCNVDHKPSNTKVDKRVESKYGPPCPPCPAPPVAGPSVFLFPPKPKDTLMISRTPEVTCVVVDVSQEDPEVQFNWYVDGVEVHNAKTKPREEQFNSTYRVVSVLTVLHQDWLNGKEYKCKVSNKGLPSSIEKTISKAKGQPREPQVYTLPPSQEEMTKNQVSLTCLVKGFYPSDIAVEWESNGQPENNYKTTPPVLDSDGSFFLYSRLTVDKSRWQEGNVFSCSVMHEALHNHYTQKSLSLSLGK
light: EIVLTQSPATLSLSPGERTTLSCRASQRISTYLAWYQQKPGQAPRLLIYDASKRATGIPARFSGSGSGTGFTLTISSLEPEDFAVYYCQQRSNWPLTFGGGTKVEIKRTVAAPSVFIFPPSDEQLKSGTASVVCLLNNFYPREAKVQWKVDNALQSGNSQESVTEQDSKDSTYSLSSTLTLSKADYEKHKVYACEVTHQGLSSPVTKSFNRGEC
notes: H4sH = modified human IgG4 Fc; also called mAb1
B9: H4H15482P (antibody, human IgG4 S228P, kappa)
heavy: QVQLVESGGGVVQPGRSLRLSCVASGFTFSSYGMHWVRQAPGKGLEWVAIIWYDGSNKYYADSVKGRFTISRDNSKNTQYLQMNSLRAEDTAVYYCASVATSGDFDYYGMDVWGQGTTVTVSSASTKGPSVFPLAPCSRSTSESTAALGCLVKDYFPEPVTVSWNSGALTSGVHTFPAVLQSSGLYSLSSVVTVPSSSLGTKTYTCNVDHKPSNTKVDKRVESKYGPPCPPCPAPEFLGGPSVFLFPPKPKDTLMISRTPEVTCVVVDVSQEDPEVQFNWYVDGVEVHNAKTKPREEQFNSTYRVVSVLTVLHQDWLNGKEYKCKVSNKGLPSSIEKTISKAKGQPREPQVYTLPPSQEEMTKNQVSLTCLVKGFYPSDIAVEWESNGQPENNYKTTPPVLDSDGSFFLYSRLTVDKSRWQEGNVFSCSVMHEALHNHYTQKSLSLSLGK
light: B8 light
notes: H4H = human IgG4 Fc with S108P

The first assay concerns the target T1, human LAG3 expressed on HEK293 cells (human, UniProt P18627 23-525).
T1 construct: also called hLAG3; HEK293/hLAG3
T1 sequence: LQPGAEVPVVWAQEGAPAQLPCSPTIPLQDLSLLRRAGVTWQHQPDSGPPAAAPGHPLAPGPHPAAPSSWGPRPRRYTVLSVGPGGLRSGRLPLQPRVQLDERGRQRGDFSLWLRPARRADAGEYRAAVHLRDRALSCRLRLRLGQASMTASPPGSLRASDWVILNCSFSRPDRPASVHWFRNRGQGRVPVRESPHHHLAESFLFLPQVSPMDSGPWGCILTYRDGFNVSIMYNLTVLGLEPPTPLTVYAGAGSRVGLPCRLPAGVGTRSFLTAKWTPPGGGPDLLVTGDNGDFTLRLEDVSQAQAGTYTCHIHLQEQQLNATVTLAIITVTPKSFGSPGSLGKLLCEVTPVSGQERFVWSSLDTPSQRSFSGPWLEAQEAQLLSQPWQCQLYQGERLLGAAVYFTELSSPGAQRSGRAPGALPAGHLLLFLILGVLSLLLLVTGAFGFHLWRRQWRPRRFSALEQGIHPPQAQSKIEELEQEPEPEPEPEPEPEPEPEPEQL
Description: electrochemiluminescence cell binding. As to the method: To investigate the ability of a panel of anti-LAG3 monoclonal antibodies to bind cell-surface expressed LAG3, an in vitro binding assay utilizing human and monkey LAG3 expressing cell lines in an electrochemiluminescence based detection platform [Meso Scale Diagnostics, Rockville, Md.—(MSD)] was developed.
Experiments were carried out according to following procedure. Cells from the three cell lines described above were rinsed once in 1×PBS buffer without Ca²⁺/Mg²⁺ followed by 10-minute incubation at 37° C. with Enzyme Free Cell Dissociation Solution. […] Approximately 10,000 cells per well in the cell-washing buffer were seeded into the 96-well carbon electrode plates (MULTI-ARRAY high bind plate, MSD) and incubated for 1 hour at 37° C. to allow the cells to adhere. Nonspecific binding sites were blocked by 2% BSA (w/v) in PBS for 1 hour at room temperature. […] The plates were then washed to remove the unbound antibodies using an AquaMax2000 plate washer (MDS Analytical Technologies). The plate-bound antibodies were detected with a SULFO-TAG™-conjugated anti-human IgG antibody (MSD) for 1 hour at room temperature. After washes, the plates were developed with the Read Buffer (MSD) according to manufacturer's recommended procedure and the luminescent signals were recorded with a SECTOR Imager 6000 (MSD) instrument. The direct binding signals (in relative light units—RLU) were analyzed as a function of the antibody concentration and the data were fitted with a sigmoidal (four-parameter logistic) dose-response model using Graph Pad Prism™ software. The potency of each antibody was determined by calculating EC₅₀.
Regarding B1, the “Ratio of 100 nM antibody binding HEK293-hLAG3 to HEK293 cells” value (shortened to “Ratio”) came to 19.8.

On to B2, for which the “Ratio” value stood at 99.8.

As for B3, the “Ratio” value came to 38.8.

For the molecule B4, the “Ratio” value amounted to 22.7.

With B5, the “Ratio” value was found to be 20.1.

In the case of B6, the “Ratio” value was 8.9.

As to B7, the “Ratio” value worked out at 6.6.

The target in another assay is T2, recombinant human LAG3 expressed with a C-terminal mouse IgG2a mFc tag (human).
T2 construct: Called dimeric; also called hLAG3-mFc; hLAG3 dimer
T2 chain: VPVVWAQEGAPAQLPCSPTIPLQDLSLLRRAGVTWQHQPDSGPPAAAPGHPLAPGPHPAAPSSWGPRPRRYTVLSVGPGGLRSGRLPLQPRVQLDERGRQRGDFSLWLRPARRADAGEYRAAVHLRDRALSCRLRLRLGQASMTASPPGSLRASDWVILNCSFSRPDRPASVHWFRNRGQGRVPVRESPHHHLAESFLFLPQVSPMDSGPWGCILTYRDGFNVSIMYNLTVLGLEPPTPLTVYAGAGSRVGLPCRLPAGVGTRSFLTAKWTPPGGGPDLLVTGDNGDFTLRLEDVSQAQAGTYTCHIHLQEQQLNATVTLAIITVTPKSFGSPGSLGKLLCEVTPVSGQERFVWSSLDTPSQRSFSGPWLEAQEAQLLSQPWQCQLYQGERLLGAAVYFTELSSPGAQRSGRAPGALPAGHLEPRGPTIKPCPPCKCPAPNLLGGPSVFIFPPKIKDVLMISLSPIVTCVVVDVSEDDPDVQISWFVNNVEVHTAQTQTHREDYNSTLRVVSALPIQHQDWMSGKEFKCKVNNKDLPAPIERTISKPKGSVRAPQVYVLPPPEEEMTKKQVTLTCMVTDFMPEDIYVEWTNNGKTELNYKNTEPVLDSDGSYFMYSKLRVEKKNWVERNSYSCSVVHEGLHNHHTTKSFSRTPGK
Description: SPR, mAb captured, 25 C. As to the method:
(§1) The BiaCore sensor surface was derivatized with either a polyclonal rabbit anti-mouse antibody (GE, # BR-1008-38) or with a monoclonal mouse anti-human Fc antibody (GE, # BR-1008-39) to capture approximately 50-85 RUs of anti-LAG3 monoclonal antibodies, expressed with either a mouse Fc or a human Fc, respectively. […] The binding of the LAG3 reagents to captured monoclonal antibodies was monitored for 4 minutes while their dissociation from the antibodies was monitored for 8 minutes in HBST running buffer (0.01 M HEPES pH 7.4, 0.15 M NaCl, 3 mM EDTA, 0.05% v/v Surfactant P20). Experiments were performed at 25° C. and 37° C. Kinetic association (kₐ) and dissociation (kd) rate constants were determined by processing and fitting the data to a 1:1 binding model using Scrubber 2.0c curve fitting software. Binding dissociation equilibrium constants (KD) and dissociative half-lives (t_{1/2}) were then calculated from the kinetic rate constants as: KD (M)=kd/kₐ and t_{1/2} (min)=[ln2/(60*kd)].
Background: Surface plasmon resonance follows binding to a sensor surface in real time, without labels.
As for B1, the Kd was 0.0106 nM, the koff stood at 1.9e-05 s⁻¹, the kon is 1.8e+06 M⁻¹ s⁻¹ and the t1/2 worked out at 10.1 h.

With B2, the Kd was not above 0.0352 nM, the koff was not above 1e-05 s⁻¹, the kon turned out to be 284000 M⁻¹ s⁻¹ and the t1/2 was not below 19.2 h.

Regarding B3, the Kd is not above 0.0276 nM, the koff is not above 1e-05 s⁻¹, the kon amounted to 363000 M⁻¹ s⁻¹ and the t1/2 is not below 19.2 h.

Turning to B4, the Kd was 0.124 nM, the koff was found to be 0.00018 s⁻¹, the kon was found to be 1.45e+06 M⁻¹ s⁻¹ and the t1/2 amounted to 1.07 h.

B5: the Kd is not above 0.00435 nM, the koff was not above 1e-05 s⁻¹, the kon was determined as 2.3e+06 M⁻¹ s⁻¹ and the t1/2 is not below 19.2 h.

With B6, the Kd is not above 0.0104 nM, the koff was not above 1e-05 s⁻¹, the kon was 958000 M⁻¹ s⁻¹ and the t1/2 was not below 19.2 h.

Take B7: the Kd was not above 0.00745 nM, the koff is not above 1e-05 s⁻¹, the kon was found to be 1.34e+06 M⁻¹ s⁻¹ and the t1/2 was not below 19.2 h.

For B8, the Kd is not above 0.0141 nM and the t1/2 was not below 19.2 h.

B9: the Kd is not above 0.0132 nM and the t1/2 was not below 19.2 h.

Another assay has as its target T3, recombinant human LAG3 expressed with a C-terminal myc-myc-hexahistidine tag (human, UniProt P18627 29-450).
T3 construct: also called hLAG3-mmh; hLAG3.mmh
Description: SPR, mAb captured, 25 C. As to the method:
as §1
On to B1, for which the Kd turned out to be 0.177 nM, the koff was determined as 7.89e-05 s⁻¹, the kon turned out to be 445000 M⁻¹ s⁻¹ and the t1/2 worked out at 2.44 h.

As for B2, the Kd worked out at 0.645 nM, the koff worked out at 0.000101 s⁻¹, the kon came to 157000 M⁻¹ s⁻¹ and the t1/2 amounted to 1.9 h.

Turning to B3, the Kd was found to be 0.26 nM, the off-rate constant (koff) was 7.81e-05 s⁻¹, the kon turned out to be 301000 M⁻¹ s⁻¹ and the t1/2 was found to be 2.46 h.

In the case of B4, the Kd worked out at 0.391 nM, the koff is 0.000443 s⁻¹, the kon was 1.13e+06 M⁻¹ s⁻¹ and the t1/2 came to 0.433 h.

B5: the Kd came to 0.0493 nM, the koff came out at 5.35e-05 s⁻¹, the kon is 1.09e+06 M⁻¹ s⁻¹ and the t1/2 stood at 3.6 h.

Take B6: the Kd amounted to 0.214 nM, the koff turned out to be 8.8e-05 s⁻¹, the kon was determined as 411000 M⁻¹ s⁻¹ and the t1/2 stood at 2.19 h.

Regarding B7, the Kd came to 1.97 nM, the koff came to 0.00037 s⁻¹, the kon was found to be 188000 M⁻¹ s⁻¹ and the t1/2 was 0.52 h.

In the case of B8, the Kd was 1.23 nM and the t1/2 turned out to be 0.742 h.

For the molecule B9, the Kd was 0.972 nM and the t1/2 came out at 0.995 h.

The record behind these values is patent US20170101472A1 (Regeneron, published 2017).
